Data from PMC8693978.

Tests used:
[1] = biological target: EGFP-ARHGAP4 SH3 deletion mutant (human); experiment: co-IP
[2] = biological target: EGFP-ARHGAP4 Rho-GAP deletion mutant (human); experiment: co-IP

Row | percent of the co-precipitation by full-length ARHGAP4 [1] [%] | percent of the co-precipitation by full-length ARHGAP4 [2] [%] | Binder
1 | 65 | 55 | SEPT9 (natural protein) MKKSYSGGTRTSSGRLRRLGDSSGPALKRSFEVEEVETPNSTPPRRVQTPLLRATVASSTQKFQDLGVKNSEPSARHVDSLSQRSPKASLRRVELSGPKAAEPVSRRTELSIDISSKQVENAGAIGPSRFGLKRAEVLGHKTPEPAPRRTEITIVKPQESAHRRMEPPASKVPEVPTAPATDAAPKRVEIQMPKPAEAPTAPSPAQTLENSEPAPVSQLQSRLEPKPQPPVAEATPRSQEATEAAPSCVGDMADTPRDAGLKQAPASRNEKAPVDFGYVGIDSILEQMRRKAMKQGFEFNIMVVGQSGLGKSTLINTLFKSKISRKSVQPTSEERIPKTIEIKSITHDIEEKGVRMKLTVIDTPGFGDHINNENCWQPIMKFINDQYEKYLQEEVNINRKKRIPDTRVHCCLYFIPATGHSLRPLDIEFMKRLSKVVNIVPVIAKADTLTLEERVHFKQRITADLLSNGIDVYPQKEFDEDSEDRLVNEKFREMIPFAVVGSDHEYQVNGKRILGRKTKWGTIEVENTTHCEFAYLRDLLIRTHMQNIKDITSSIHFEAYRVKRLNEGSSAMANGMEEKEPEAPEM
2 | 65 | 55 | SEPT2 (natural protein) MSKQQPTQFINPETPGYVGFANLPNQVHRKSVKKGFEFTLMVVGESGLGKSTLINSLFLTDLYPERVIPGAAEKIERTVQIEASTVEIEERGVKLRLTVVDTPGYGDAINCRDCFKTIISYIDEQFERYLHDESGLNRRHIIDNRVHCCFYFISPFGHGLKPLDVAFMKAIHNKVNIVPVIAKADTLTLKERERLKKRILDEIEEHNIKIYHLPDAESDEDEDFKEQTRLLKASIPFSVVGSNQLIEAKGKKVRGRLYPWGVVEVENPEHNDFLKLRTMLITHMQDLQEVTQDLHYENFRSERLKRGGRKVENEDMNKDQILLEKEAELRRMQEMIARMQAQMQMQMQGGDGDGGALGHHV
